Source: the RNAGym collection of RNA variant scans (doi:10.7554/elife.90254)

B1: LINE1-full (parent)
chain: UACGUAGGUGGUUUUCCCCUGAUAGUGCUAAGGGGGCCUGGAAGUUUGGACUGGGCAGAGCUCAACACAGCGUGGCAAAGUGGCUGUGGCUAGACUGCCUCUCUGGAUUCCUCGUCACUCAGCAGGGCAUCUCUGAGAGAAAUGCC

Variants of: B1
Experiment: self-cleavage, relative activity (ratio to wild type); higher = more cleavage; in vitro, sequencing; the parent is a self-cleaving ribozyme

| Variant | self-cleavage |
| --- | --- |
| U46C U130A | 1.68 |
| A79G C120G | 1.08 |
| U5C U134C | 0.33 |
| U45C A79G | 1.15 |
| U91C C128U | 1 |
| G8U U62A | 0.12 |
| G41U G127A | 0.69 |
| C51U U100C | 1.68 |
| A30C U87C | 0.64 |
| U115A A129G | 1.9 |
| A31G U47C | 0.79 |
| G33U C90G | 0.07 |
| U5C C111U | 0.85 |
| U52C U143A | 1.84 |
| U62C G82A | 0.04 |
| U81A C145A | 2.25 |
| U20C U85A | 0.11 |
| U52A A140U | 1.57 |
| U15A U119C | 0.19 |
| C17U U104A | 0.95 |
| U5A U62C | 0.05 |
| A69G A107G | 0.37 |
| A6G C18U | 0.59 |
| U130A | 1.42 |

| Variant | self-cleavage |
| --- | --- |
| U62A U91C | 0.04 |
| A50G A129G | 1.22 |
| U12A U45C | 0.82 |
| G27A U87C | 0.19 |
| U81G A140G | 1.4 |
| A6G G86A | 0.31 |
| U73C G97A | 0.41 |
| C120U C123A | 1.78 |
| G83A | 0.86 |
| U26A U85A | 0.16 |
| A22G U132A | 0.48 |
| U46C A57C | 0.31 |
| U20A U104C | 0.93 |
| U15A A94U | 0.25 |
| U39A G88A | 0.08 |
| U85C A124G | 0.13 |
| U15C G125U | 0.82 |
| G32A A79G | 1.26 |
| A2U A43G | 1.07 |
| U9C U26C | 1.35 |
| A67U U73C | 0.18 |
| U104C U134C | 1.62 |
| A67G U87A | 0.12 |
| A79G A138G | 1.22 |

| Variant | self-cleavage |
| --- | --- |
| U46A A79G | 1.06 |
| A79C U119C | 1.82 |
| A77G A78G | 1.68 |
| U9A U47C | 1.37 |
| C19A U102C | 1.76 |
| A31G U81C | 0.69 |
| A67U A117U | 0.1 |
| U45G U96C | 0.05 |
| A30U G144A | 0.75 |
| U15C U109A | 1.41 |
| A30U U47A | 1.15 |
| U9A U20A | 1.41 |
| C18A U115G | 0.99 |
| U23A A78G | 1.14 |
| G74A A141G | 0.97 |
| A24U A77G | 2.22 |
| G32C A67G | 0 |
| U9C U39A | 1.17 |
| A67G | 0.5 |
| U87A A142G | 0.07 |
| U9C G89U | 0.08 |
| U104C A117G | 1.23 |
| A42G A138U | 1.6 |
| A50C C120U | 1.66 |

| Variant | self-cleavage |
| --- | --- |
| U46A U119C | 0.92 |
| A117C G144A | 1.79 |
| U115A U143C | 1.54 |
| A57C A121U | 0.03 |
| A117G A124G | 0.69 |
| A24C A121G | 2.59 |
| C16U U112C | 1.71 |
| A69G G122A | 0.4 |
| U39C G80A | 1.06 |
| U39C U100G | 0.59 |
| A78C A136G | 2.92 |
| A22G A30G | 0.86 |
| G36U A79G | 1.3 |
| U14A A129G | 1.84 |
| A64U G125A | 0.34 |
| U14C G55C | 0.09 |
| U85A U112C | 0.04 |
| G89A U109C | 0.04 |
| U52C G139A | 0.78 |
| U100C C146A | 1.75 |
| U1C A78C | 1.46 |
| U9A C37U | 0.63 |
| U47C G60A | 0.03 |
| G7A U26C | 2 |

| Variant | self-cleavage |
| --- | --- |
| U29C A64G | 0.38 |
| C113U A121G | 0.68 |
| G53A A129G | 1.4 |
| A69G G88C | 0.06 |
| U29G G70A | 0.27 |
| U47C G88A | 0.07 |
| G125U A136U | 1.8 |
| A94U U134G | 0.2 |
| U52C C98A | 0.1 |
| G55U A59G | 0.05 |
| G139U C145G | 2.02 |
| U9A U81C | 1.1 |
| U52C G114A | 1.24 |
| U15A A136U | 0.35 |
| U47A A136G | 1.52 |
| A117G A121C | 1.78 |
| U20A C111A | 1.19 |
| U132A | 1.32 |
| G11U U130C | 1 |
| U26C U119C | 1.77 |
| A57U U62A | 0.03 |
| A24U A138U | 1.93 |
| U15G A79G | 0 |
| A50G C68U | 0.1 |

| Variant | self-cleavage |
| --- | --- |
| G25C A69G | 0.14 |
| A65U A129G | 0.38 |
| A42G C99A | 0.94 |
| U45G A57U | 0.18 |
| U9A A129U | 1.43 |
| U109C G126A | 1.83 |
| A64U G74A | 0.3 |
| A65G A140C | 0.13 |
| A57C A138G | 0.22 |
| U46C U134C | 1.53 |
| A30G A42C | 0.59 |
| G72A U132C | 1.13 |
| U12A U47A | 0.67 |
| U20G U29A | 0.8 |
| U85C A129G | 0.16 |
| G97U A140G | 0.07 |
| A22G A136G | 1.17 |
| G54A U100A | 0.16 |
| A59U G89A | 0.04 |
| U108C A141G | 1.65 |
| C61A U62C | 0.08 |
| U14C C61G | 0.1 |
| U45G A141G | 1.32 |
| C19U U134A | 0.81 |

| Variant | self-cleavage |
| --- | --- |
| U15A U20G | 0.68 |
| C71U A141G | 0.68 |
| U81A A124C | 2.45 |
| A30G U85A | 0.32 |
| U52G A136G | 0.88 |
| A22G A57G | 0.67 |
| U81G U100C | 1.43 |
| U12C U112C | 1.26 |
| A30C A141G | 1.38 |
| G58A A94G | 0 |
| U12C G88A | 0.1 |
| A64G A107C | 0.12 |
| A94U U115A | 0.31 |
| A69C C71A | 0.16 |
| G70A U100C | 0.29 |
| G44C A117U | 1.53 |
| G10A U130G | 0.93 |
| U96C U132A | 0.11 |
| G7C G48A | 0.92 |
| A31G U134C | 1.53 |
| G25C C98G | 0.25 |
| U1C U102C | 1.03 |
| U62A U132C | 0.06 |
